Test results: article PMC10055998
Read-outs that look alike come from different tables or passages of the source.

What was measured:
[1] = target: SV2C, the BoNT/A protein receptor, rat (rat (endogenous in primary rat spinal cord cells)) (UniProt Q9Z2I6)
[2] = target: SV2C, the BoNT/A protein receptor, human (human (endogenous in hiPSC-derived motor neurons)) (UniProt Q496J9)
[3] = target: SV2C, the BoNT/A protein receptor, rat (rat (endogenous in primary rat spinal cord cells)) (UniProt Q9Z2I6); remark: listed apart in the source

Sequence of UniProt Q9Z2I6 (Q9Z2I6 whole entry): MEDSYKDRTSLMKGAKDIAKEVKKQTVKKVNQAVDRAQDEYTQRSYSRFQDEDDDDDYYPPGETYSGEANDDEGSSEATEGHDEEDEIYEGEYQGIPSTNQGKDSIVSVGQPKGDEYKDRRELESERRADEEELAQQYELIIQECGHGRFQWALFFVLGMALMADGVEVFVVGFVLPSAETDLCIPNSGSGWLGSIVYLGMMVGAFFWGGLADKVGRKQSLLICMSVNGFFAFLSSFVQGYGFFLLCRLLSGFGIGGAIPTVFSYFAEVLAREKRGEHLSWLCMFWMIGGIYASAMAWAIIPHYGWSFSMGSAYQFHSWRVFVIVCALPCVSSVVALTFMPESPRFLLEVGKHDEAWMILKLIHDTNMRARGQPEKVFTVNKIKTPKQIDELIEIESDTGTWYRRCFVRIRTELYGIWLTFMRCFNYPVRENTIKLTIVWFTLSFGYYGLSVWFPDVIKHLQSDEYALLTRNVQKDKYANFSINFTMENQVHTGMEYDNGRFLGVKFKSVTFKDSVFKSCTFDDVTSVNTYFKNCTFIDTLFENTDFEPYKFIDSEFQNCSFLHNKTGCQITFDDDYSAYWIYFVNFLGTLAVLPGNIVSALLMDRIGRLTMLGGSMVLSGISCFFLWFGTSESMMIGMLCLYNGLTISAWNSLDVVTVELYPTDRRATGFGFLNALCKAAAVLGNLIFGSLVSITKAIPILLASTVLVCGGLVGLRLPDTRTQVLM
Sequence of UniProt Q496J9 (Q496J9 whole entry): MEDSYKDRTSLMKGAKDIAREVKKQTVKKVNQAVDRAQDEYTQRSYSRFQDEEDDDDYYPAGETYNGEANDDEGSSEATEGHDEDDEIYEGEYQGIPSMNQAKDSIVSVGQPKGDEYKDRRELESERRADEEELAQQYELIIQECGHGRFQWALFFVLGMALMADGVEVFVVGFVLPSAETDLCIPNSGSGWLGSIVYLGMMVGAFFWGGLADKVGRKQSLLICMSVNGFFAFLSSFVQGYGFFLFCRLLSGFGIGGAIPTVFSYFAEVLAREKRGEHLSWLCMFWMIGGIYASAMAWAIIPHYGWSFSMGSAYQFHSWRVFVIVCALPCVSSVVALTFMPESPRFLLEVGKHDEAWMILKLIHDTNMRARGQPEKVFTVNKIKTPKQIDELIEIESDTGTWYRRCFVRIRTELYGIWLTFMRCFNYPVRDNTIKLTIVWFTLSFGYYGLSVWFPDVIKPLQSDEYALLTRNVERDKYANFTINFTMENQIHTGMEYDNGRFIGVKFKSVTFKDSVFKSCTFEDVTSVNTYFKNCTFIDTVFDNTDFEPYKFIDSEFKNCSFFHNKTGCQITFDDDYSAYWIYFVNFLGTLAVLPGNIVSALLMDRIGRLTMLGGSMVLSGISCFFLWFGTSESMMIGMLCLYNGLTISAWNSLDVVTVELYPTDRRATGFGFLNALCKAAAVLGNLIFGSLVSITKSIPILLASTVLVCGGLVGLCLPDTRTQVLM

Botulinum neurotoxin subtype A1 (BoNT/A1), 150-kDa holotoxin (from UniProt P0DPI0) (natural protein)
EC50 RSC (SNAP-25 cleavage in primary rat spinal cord cells, 48 h) [1]: 1.1 pg/Well
EC50 MN (SNAP-25 cleavage in hiPSC derived motor neurons, 48 h) [2]: 0.07 pg/Well
EC50 RSC (SNAP-25 cleavage in primary rat spinal cord cells, 48 h) [3]: 1 pg/Well
